The target in experiment [1] is human neonatal Fc receptor (human-FcRn) (human) (UniProt P55899).
For experiment [2] the target is unchanged. Briefly: SPR; format and conditions not told in the text (who was immobilised, pH, buffer); shown in Fig. S1B-C. (In general: Surface plasmon resonance follows binding to a sensor surface in real time, without labels.)
Experiment [3] deals with monkey neonatal Fc receptor (monkey-FcRn) (monkey) (UniProt Q8SPV9). The experiment is described as above.

As to “PAT101, recombinant human albumin (rHA)-conjugated Aspergillus flavus urate oxidase (from UniProt Q00511 1-302; P02768 25-609) (complex)”, the plasma half-life T1/2 (uricase activity) after a single i.v. dose in TG mice expressing human FcRn in experiment [1] came out at 95 h. In addition, the Kd worked out at 2940 nM in experiment [2] and 6.85 µM in experiment [3].

For orientation: Kd means the constant that tells how readily two partners part at equilibrium.
